According to patent publication US20230192860A1 (Bristol-Myers Squibb, published 2023):
Residue numbers refer to the chain shown, from its start. Numbers in names are those of the source. Where “and” joins values, the source holds several entries; their conditions need not be identical. Equal entries are not always repeated.

B1: P1-072000 (P1-061029_F100fE_V102D) (antibody, human IgG1, kappa, V domains shown)
VH: EVQLVESGGGLVQPGKSLRLSCAASGFTLDDYAMHWVRQAPGKGLEWVSGINWNSANIGYADSVKGRFTISRDNAKNSLYLQMNSLRTEDTALYYCAKVPGYSGGWIDAEDDWGQGTMVTVSS
VL: not shown
notes: also called P1-072000-3; P1-72000
B2: P1-068757 (antibody, human IgG1, kappa, V domains shown)
VH: B1 VH with D30E, Y32E, A56E, N57E
VL: not shown
notes: IgG1.3; also called P1-068757-9
B3: P1-068765 (antibody, human IgG1, kappa, V domains shown)
VH: B1 VH with L29D, D30E, A56E, N57E
VL: not shown
notes: IgG1.3; also called P1-068765-10
B4: P1-068775 (antibody, human IgG1, kappa, V domains shown)
VH: B1 VH with D30E, Y32E, N52D, A56E, N57E, G104H
VL: not shown
notes: IgG1.3; also called P1-068775-8
B5: P1-068769 (antibody, human IgG1, kappa, V domains shown)
VH: B1 VH with D30E, Y32E, A56D, N57H
VL: not shown
notes: IgG1.3
B6: P1-068771 (antibody, human IgG1, kappa, V domains shown)
VH: B1 VH with D30E, Y32E, A56H, N57E
VL: not shown
notes: IgG1.3; also called P1-068771-10
B7: P1-068759 (antibody, human IgG1, kappa, V domains shown)
VH: B1 VH with D30E, Y32E, N52D, A56E
VL: not shown
notes: IgG1.3; also called P1-068759-9
B8: P1-068773 (antibody, human IgG1, kappa, V domains shown)
VH: B1 VH with D30E, N52D, A56D
VL: not shown
notes: IgG1.3
B9: P1-069059 (antibody, human IgG1, kappa, V domains shown)
VH: B1 VH with D30E, A56D, N57H
VL: not shown
notes: IgG1.3
B10: P1-069073 (antibody, human IgG1, kappa, V domains shown)
VH: B1 VH with D30E, Y32E, N57E, D112V
VL: not shown
notes: IgG1.3
B11: P1-069061 (antibody, human IgG1, kappa, V domains shown)
VH: B1 VH with D30E, N57E
VL: not shown
notes: IgG1.3
B12: P1-068736 (antibody, human IgG1, kappa, V domains shown)
VH: QVQLVESGGGVVQPGRSLRLSCAASGFTFSEYAMHWVRQAPGKGLEWVAIDWYDGSNKDYADSVKGRFTISRDNSKNTLYLQMNSLRAEDTAVYYCARDSGFYDSYYFDDWGQGTLVTVSS
VL: EIVLTQSPATLSLSPGERATLSCRASQSVSSSYLAWYQQKPGQAPRLLIYDASNRATGIPARFSGSGSGTDFTLTISSLEPEDFATYYCQQYNSYPYTFGQGTKLEIKR
notes: IgG1.3
B13: P1-068744 (antibody, human IgG1, kappa, V domains shown)
VH: B12 VH with I50H, D51I, D59Y, Y60E, D104E, D110E
VL: B12 VL
notes: IgG1.3; also called P1-068744-7
B14: P1-068752 (antibody, human IgG1, kappa, V domains shown)
VH: B12 VH with E31S, I50E, D51I, D110E
VL: B12 VL
notes: IgG1.3
B15: P1-068759 (antibody, human IgG1, kappa, V domains shown)
VH: B1 VH with D30E, Y32E, N52D, A56E
VL: not shown
notes: also called P1-068759-9; 029 progeny
B16: P1-077835 (P1-068744 E31S) (antibody, V domains shown)
VH: B12 VH with E31S, I50H, D51I, D59Y, Y60E, D104E, D110E
VL: EIVLTQSPATLSLSPGERATLSCRASQSVSSSYLAWYQQKPGQAPRLLIYDASNRATGIPARFSGSGSGTDFTLTISSLEPEDFATYYCQQYNSYPYTFGQGTKLEIK
B17: P1-077841 (P1-068744 E100S) (antibody, V domains shown)
VH: B12 VH with I50H, D51I, D59Y, Y60E, D104S, D110E
VL: B16 VL
B18: P1-077847 (P1-068744 H50I E59Y) (antibody, V domains shown)
VH: B12 VH with D51I, D59Y, D104E, D110E
VL: B16 VL
B19: P1-077851 (P1-068744 E100S E102Y) (antibody, V domains shown)
VH: B12 VH with I50H, D51I, D59Y, Y60E, D104S, D110Y
VL: B16 VL
B20: P1-077843 (P1-068744 E102Y) (antibody, V domains shown)
VH: B12 VH with I50H, D51I, D59Y, Y60E, D104E, D110Y
VL: B16 VL
B21: P1-077837 (P1-068744 H50I) (antibody, V domains shown)
VH: B12 VH with D51I, D59Y, Y60E, D104E, D110E
VL: B16 VL
B22: P1-077845 (P1-068744 E31S H50I) (antibody, V domains shown)
VH: B12 VH with E31S, D51I, D59Y, Y60E, D104E, D110E
VL: B16 VL
B23: P1-077853 (P1-068744 E31S E102Y) (antibody, V domains shown)
VH: B12 VH with E31S, I50H, D51I, D59Y, Y60E, D104E, D110Y
VL: B16 VL
B24: P1-077839 (P1-068744 E59Y) (antibody, V domains shown)
VH: B12 VH with I50H, D51I, D59Y, D104E, D110E
VL: B16 VL
B25: P1-077849 (P1-068744 E59Y E100S) (antibody, V domains shown)
VH: B12 VH with I50H, D51I, D59Y, D104S, D110E
VL: B16 VL

These binders were tested against T1, hVISTA-ECD 6-His tag (human, UniProt Q9H7M9 33-193) (assay: SPR, Ab on Protein A, hVISTA analyte, pH 6.45).
T1 construct: also called monovalent hVISTA-ECD; human VISTA
T1 sequence (Q9H7M9 other isoform, or with tags, fused parts or gaps limits assumed): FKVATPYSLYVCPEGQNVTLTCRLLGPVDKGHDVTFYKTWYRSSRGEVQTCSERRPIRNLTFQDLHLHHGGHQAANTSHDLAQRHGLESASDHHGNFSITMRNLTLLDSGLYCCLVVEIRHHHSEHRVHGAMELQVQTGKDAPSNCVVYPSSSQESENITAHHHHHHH

Row | Kd | koff | kon | Binder
1 | 47 nM and 27 nM | 0.0053 s⁻¹ and 0.0044 s⁻¹ | 110000 M⁻¹ s⁻¹ and 160000 M⁻¹ s⁻¹ | B1

The binders below were run against T2, monovalent hVISTA-ECD (amino acids 32-193 of SEQ ID NO: 1 with a 7xHis tail) (human, UniProt Q9H7M9 33-193) (assay: SPR 37C, Ab on Protein A, hVISTA-ECD 50-5 nM, pH 6.0, average).
T2 construct: analyte of the SPR assays; also called huVISTA-His; human VISTA-ECD
Protocol: Binding of several preparations of each of the ‘029 progeny clones and of the parent ‘029 antibodies, formatted as IgG1.3 antibodies, to human VISTA at pH 6.0 and 7.4 was measured by Surface plasmon resonance (SPR). SPR analysis was performed to measure koff and KD binding affinity measurements for VISTA Abs at acidic and neutral pHs using a Biacore® T100 instrument (GE Healthcare). […] Antibodies were diluted to 25 nM in PBST pH 7.4, and were captured across active biosensor flow cells at 5 ul/min for 60 seconds. A concentration series of 50 - 5 nM monovalent hVISTA-ECD (SEQ ID NO: 325) was prepared in pH 7.4 and 6.0 running buffers, and was injected over the captured antibodies at 40 ul/min to measure association and dissociation. Two 15 second injections of 10 mM glycine pH 1.5 were used to regenerate the Protein A capture surface between assay cycles. Rate constants ka (kₒₙ) and kd (koff) were derived from reference flow cell and 0 nM blank-subtracted sensorgrams, and were fit to a 1:1 binding model in Biacore® T200 Evaluation Software v.2.0. The affinity constant, KD was calculated as the ratio of rate constants koff/kₒₙ for each VISTA antibody.

T2 sequence (Q9H7M9 other isoform, or with tags, fused parts or gaps limits assumed): as above

Row | Kd | koff | kon | Binder
2 | 19 nM | 0.017 s⁻¹ | 890000 M⁻¹ s⁻¹ | B2
3 | 19 nM | 0.007 s⁻¹ | 370000 M⁻¹ s⁻¹ | B3
4 | 23 nM | 0.047 s⁻¹ | 1.8e+06 M⁻¹ s⁻¹ | B4
5 | 55 nM | 0.04 s⁻¹ | 810000 M⁻¹ s⁻¹ | B5
6 | 25 nM | 0.018 s⁻¹ | 760000 M⁻¹ s⁻¹ | B6
7 | 60 nM | 0.08 s⁻¹ | 1.3e+06 M⁻¹ s⁻¹ | B7
8 | 9.4 nM | 0.0029 s⁻¹ | 300000 M⁻¹ s⁻¹ | B8
9 | 4.8 nM | 0.0016 s⁻¹ | 340000 M⁻¹ s⁻¹ | B9
10 | 9.4 nM | 0.0058 s⁻¹ | 610000 M⁻¹ s⁻¹ | B10
11 | 2.5 nM | 0.0011 s⁻¹ | 430000 M⁻¹ s⁻¹ | B11
12 | 1.1 nM | 0.0095 s⁻¹ | 8.4e+06 M⁻¹ s⁻¹ | B12
13 | 1.3 nM | 0.0018 s⁻¹ | 1.3e+06 M⁻¹ s⁻¹ | B13
14 | 5.6 nM | 0.034 s⁻¹ | 6.1e+06 M⁻¹ s⁻¹ | B14

What follows are binders tested against T1, hVISTA-ECD 6-His tag (assay: SPR, Ab on Protein A, hVISTA analyte, pH 6.0).

Row | Kd | koff | kon | Binder
15 | 96 nM | 0.058 s⁻¹ | 600000 M⁻¹ s⁻¹ | B15
16 | 11 nM and 5.8 nM | 0.0027 s⁻¹ and 0.0026 s⁻¹ | 250000 M⁻¹ s⁻¹ and 450000 M⁻¹ s⁻¹ | B1

These binders were tested against T1, hVISTA-ECD 6-His tag (assay: SPR, Ab on Protein A, hVISTA analyte, pH 6.9).
Protocol: Further binding kinetic experiments were performed at various pHs on VISTA antibodies described herein by SPR as generally described in Example 9 above. Antibodies were normalized to 50 nM concentration in PBST pH 7.4 and captured on a Protein A CM5 chip (ID 4931) by injecting for 45 seconds at a 5 µL/min flow rate. An 8-point human VISTA titration ([…]) was prepared in PBST at pH 7.4, 6.9, 6.45, and 6.0. Titrations were injected over the captured antibodies for 180 seconds at 30 µL/min. Sensorgrams were fit to a 1:1 binding model in T200 evaluation software and the kinetic constants were reported.
Each table reports the data at one of the four tested pHs (7.4, 6.9, 6.45, and 6.0, respectively). The 8-point hVISTA titration used in these assays was chosen to provide increased confidence in kinetic values reported at neutral pH conditions. A relatively stringent cutoff for non-binding was applied in this assay. Certain progeny of P1-061029 antibody (P1-068757, ‘759, ‘765, ‘771, and ‘775) show no binding to hVISTA at micromolar concentrations at pH 7.4, while ‘761 and ‘767 show no binding to hVISTA at 100 nM at pH 7.4 but do show binding to hVISTA at micromolar concentrations.

Row | Kd | koff | kon | Binder
17 | 280 nM and 250 nM | 0.011 s⁻¹ | 39000 M⁻¹ s⁻¹ and 42000 M⁻¹ s⁻¹ | B1

These binders were tested against T1, hVISTA-ECD 6-His tag (assay: SPR 37 C, Ab on Protein A, pH 7.4).

Row | Kd | koff | kon | Binder
18 | 660 nM | 0.026 s⁻¹ | 39000 M⁻¹ s⁻¹ | B16
19 | 910 nM | 0.3 s⁻¹ | 330000 M⁻¹ s⁻¹ | B17
20 | 29 nM | 0.0035 s⁻¹ | 120000 M⁻¹ s⁻¹ | B18
21 | 2200 nM | 0.3 s⁻¹ | 150000 M⁻¹ s⁻¹ | B19
22 | 2000 nM | 0.034 s⁻¹ | 18000 M⁻¹ s⁻¹ | B20
23 | 26 nM | 0.0033 s⁻¹ | 130000 M⁻¹ s⁻¹ | B21
24 | 14 nM | 0.0038 s⁻¹ | 280000 M⁻¹ s⁻¹ | B22
25 | 1200 nM | 0.024 s⁻¹ | 21000 M⁻¹ s⁻¹ | B23
26 | 1300 nM | 0.093 s⁻¹ | 71000 M⁻¹ s⁻¹ | B24
27 | 6600 nM | 0.35 s⁻¹ | 53000 M⁻¹ s⁻¹ | B25

What follows are binders tested against T1, hVISTA-ECD 6-His tag (assay: SPR 37 C, Ab on Protein A, pH 6.0).

Row | Kd | koff | kon | Binder
28 | 7.7 nM | 0.0017 s⁻¹ | 220000 M⁻¹ s⁻¹ | B16
29 | 200 nM | 0.11 s⁻¹ | 520000 M⁻¹ s⁻¹ | B17
30 | 2.7 nM | 0.0032 s⁻¹ | 1.2e+06 M⁻¹ s⁻¹ | B18
31 | 220 nM | 0.085 s⁻¹ | 380000 M⁻¹ s⁻¹ | B19
32 | 33 nM | 0.0048 s⁻¹ | 150000 M⁻¹ s⁻¹ | B20
33 | 2.5 nM | 0.003 s⁻¹ | 1.2e+06 M⁻¹ s⁻¹ | B21
34 | 1.7 nM | 0.002 s⁻¹ | 1.2e+06 M⁻¹ s⁻¹ | B22
35 | 18 nM | 0.0019 s⁻¹ | 110000 M⁻¹ s⁻¹ | B23
36 | 85 nM | 0.054 s⁻¹ | 630000 M⁻¹ s⁻¹ | B24
37 | 220 nM | 0.11 s⁻¹ | 500000 M⁻¹ s⁻¹ | B25
